The target in one assay is T1, AtNFS1 alone (Arabidopsis thaliana, UniProt O49543).
T1 construct: gene NIFS1; mature form, pET32a with His6 tag and TEV site, codon-optimised, E. coli expression; about 48 kDa with His6
T1 sequence (O49543 35-453): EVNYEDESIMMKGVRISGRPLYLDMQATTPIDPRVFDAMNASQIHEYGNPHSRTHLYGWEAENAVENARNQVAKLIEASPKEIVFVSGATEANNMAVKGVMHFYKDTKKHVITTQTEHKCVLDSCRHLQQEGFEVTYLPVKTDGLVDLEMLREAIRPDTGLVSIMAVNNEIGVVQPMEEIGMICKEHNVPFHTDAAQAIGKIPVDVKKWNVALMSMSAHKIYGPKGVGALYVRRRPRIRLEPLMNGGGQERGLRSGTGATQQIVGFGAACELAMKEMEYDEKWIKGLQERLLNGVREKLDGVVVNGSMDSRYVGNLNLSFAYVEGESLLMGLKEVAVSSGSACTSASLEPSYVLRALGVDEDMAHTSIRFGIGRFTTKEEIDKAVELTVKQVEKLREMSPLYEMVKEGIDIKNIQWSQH
Put plainly: L-alanine production, ninhydrin colorimetric assay at […] nm. In kind it is biochemical. As to conditions: no AtFH or AtISD11, 25 mM Tris-HCl pH 8, 100 mM NaCl, 10 uM PLP, 100 uM DTT, 37 °C, low activity.

For assay [1], the target named is AtNFS1-His6 (cysteine desulfurase AtNFS1 from Arabidopsis thaliana, mature form, His6-tagged) (Arabidopsis thaliana) (UniProt O49543).
Assay [2] shares this target. The source holds these as a separate data set.

2 compounds from paper PMC7570111, “Iron-Sulfur Cluster Complex Assembly in the Mitochondria of Arabidopsis thaliana” (Plants, 2020) can be followed below.

On to `N[C@@H](CS)C(=O)O` [L-cysteine], for which the “L-alanine production, ninhydrin colorimetric assay at 565 nm” value at AtNFS1 alone was “in the presence of its substrates, AtNFS1 alone shows low cysteine desulfurase activity”.

On to “AtFH (frataxin from Arabidopsis thaliana, mature form, without His6 tag) (natural protein)”, for which the cysteine desulfurase activity of AtNFS1 in the presence of AtFH and AtISD11 (1:1:1 molar ratio), Vmax in assay [1] was 47.8 U/mg. For the same compound, the attenuation of the Fenton reaction (decrease in malondialdehyde produced from dRibose, Fe(II) and H2O2) with AtFH, AtNFS1 and AtISD11 together (30 uM each); AtFH alone about 40% in assay [2] is 80%.
